Paper PMC11018607, “A widely conserved protein Rof inhibits transcription termination factor Rho and promotes Salmonella virulence program” (Nature Communications, 2024)

Target: T1, Transcription termination factor Rho (E. coli) (E. coli, UniProt P0AG30 1-419)
T1 construct: Transcription termination factor Rho, E. coli, expressed from pET24b-rho; no tag is mentioned; In the cryo-EM map density was absent for residues 280-284; also called EcRho; Rho hexamer; source: E. coli BL21(DE3) carrying pET24b-rho, purified (HiTrap Q, heparin, Superdex 200)
Experiment: SEC; gel filtration of the complex assembled by mixing purified Rho and Rof at a ratio of 1:1
Conditions: both partners purified

T1 sequence (P0AG30 whole entry, the tested form may be a part): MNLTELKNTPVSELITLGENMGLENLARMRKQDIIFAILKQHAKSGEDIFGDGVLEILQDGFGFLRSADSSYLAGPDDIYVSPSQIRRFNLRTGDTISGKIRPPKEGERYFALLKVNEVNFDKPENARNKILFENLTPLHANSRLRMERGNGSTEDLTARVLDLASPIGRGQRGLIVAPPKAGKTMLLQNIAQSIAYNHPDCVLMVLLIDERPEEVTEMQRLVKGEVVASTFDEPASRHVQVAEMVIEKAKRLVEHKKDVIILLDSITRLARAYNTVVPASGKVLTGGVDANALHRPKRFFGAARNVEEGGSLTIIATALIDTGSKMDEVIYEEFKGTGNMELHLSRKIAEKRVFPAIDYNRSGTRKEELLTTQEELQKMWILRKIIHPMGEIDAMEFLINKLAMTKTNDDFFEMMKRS

B1: Rof (Rho-off, YaeO), E. coli (natural protein)
chain: MNDTYQPINCDDYDNLELACQHHLMLTLELKDGEKLQAKASDLVSRKNVEYLVVEAAGETRELRLDKITSFSHPEIGTVVVSES
notes: Protein Rof (YaeO), E. coli, expressed from pET22b-rof; In the cryo-EM map density was absent for Rof residues 1-5; No removal of the tag is described; also called EcRof; source: E. coli BL21(DE3) transformed with pET22b-rof, purified (Ni-NTA, Superdex 200)
B1: binds.
